Substrate: NC(=O)c1ccc[n+]([C@@H]2O[C@H](COP(=O)(O)OP(=O)(O)OC[C@H]3O[C@@H](n4cnc5c(N)ncnc54)[C@H](OP(=O)(O)O)[C@@H]3O)[C@@H](O)[C@H]2O)c1
Test: NADP+ reduction, Eadie-Hofstee plot, crude E. coli extract
Assay type: biochemical, Glycine max
Conditions: co-substrate G6P, assay as for plant extracts: 50 mM Hepes-Tris pH 7.8, 3.3 mM MgCl2

B1: GmG6PDH2 (Glycine max) (protein)
chain: MGTSEWHIERRSSFGTESPLAREAGNVPETGSLSIVVLGASGDLAKKKTFPALFHLYRQGFLPADEVHIFGYARTKISDDELRNRLRGYLVPNKGASPQLLEDVEKFLQLIKYVSGSYDSEDGFRLLDKEISEHEYLKKSVEGLSRRLFYLALPPSVYPSVCKMIKTCCMNKSDLGGWTRVVVEKPFGKDLESAEELSTEIGKLFEEPQIYRIDHYLGKELVQNLLVLRFANRFFLPLWNRDNIDNVQIVFREDFGTDGRGGYFDQYGIIRDIIQNHLLQVLCLVAMEKPVSLRPEHIRDEKVKVLESVLPIRDDEVVLGQYEGYKDDPTVPDKSNTPTFATVILRIHNERWEGVPFILKAGKALNSRKAEIRVQFKDVPGDIFKCKKQGRNEFVIRLQPLEAMYMKLTVKQPGLEMSTVQSELDLSYGQRYQGVTIPEAYERLILDTIKGDQQHFVRRDELKASWQIFTPLLHRIDEGEFKPLPYKPGSRGPAEADQLLEKAGYVQTHGYIWIPPTL
notes: full-length CDS in pET32a(+), His-tagged, E. coli Rosetta; crude lysate supernatant, not purified
For B1, the Km was 33 µM.
